Source: patent publication EP4680648A1 (dated 2026)
Residue numbers refer to the chain shown, from its start.

Assays:
[1] = target: human HER3 expressed on CHO-S cells (CHO-hHER3 cells) (human, UniProt P21860 20-643); assay: flow cytometry on CHO-hHER3 cells
[2] = target: T1, His-tagged human HER3 protein (hHER3, ACRO Biosystems Inc., Cat#: ER3-H5223) (human, UniProt P21860 20-643); assay: SPR (Biacore 8K), antibody captured on Protein A chip, His-tagged hHER3 as analyte
T1 construct: Bought protein; also called hHER3-His; not shown: His tag

[3] = target: T2, monkey (Macaca fascicularis) HER3 expressed on CHO-S cells (CHO-fasHER3 cells) (monkey (Macaca fascicularis), UniProt P21860 20-643 (human entry)); assay: flow cytometry on CHO-fasHER3 cells
T2 construct: also called monkey HER3
T2 chain: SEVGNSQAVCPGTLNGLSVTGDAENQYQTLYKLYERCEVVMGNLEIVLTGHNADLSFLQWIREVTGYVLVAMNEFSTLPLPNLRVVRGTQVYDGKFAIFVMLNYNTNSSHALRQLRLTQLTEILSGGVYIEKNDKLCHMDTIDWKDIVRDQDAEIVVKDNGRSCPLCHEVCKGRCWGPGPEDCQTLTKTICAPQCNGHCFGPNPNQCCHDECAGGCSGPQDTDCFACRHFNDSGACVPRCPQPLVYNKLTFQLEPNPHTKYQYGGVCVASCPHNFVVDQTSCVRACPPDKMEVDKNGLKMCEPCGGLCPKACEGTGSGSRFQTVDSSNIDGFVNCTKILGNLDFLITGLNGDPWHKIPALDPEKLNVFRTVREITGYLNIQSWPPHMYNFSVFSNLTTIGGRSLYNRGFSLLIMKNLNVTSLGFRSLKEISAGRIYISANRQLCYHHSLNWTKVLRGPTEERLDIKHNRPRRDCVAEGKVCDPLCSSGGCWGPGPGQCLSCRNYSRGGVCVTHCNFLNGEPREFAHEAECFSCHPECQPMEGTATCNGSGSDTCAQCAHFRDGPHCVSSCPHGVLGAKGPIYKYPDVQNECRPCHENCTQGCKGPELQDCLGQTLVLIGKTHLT

[4] = target: T3, dog HER3 expressed on CHO-S cells (CHO-dHER3 cells) (dog, UniProt P21860 20-1342 (human entry)); assay: flow cytometry on CHO-dHER3 cells
T3 chain: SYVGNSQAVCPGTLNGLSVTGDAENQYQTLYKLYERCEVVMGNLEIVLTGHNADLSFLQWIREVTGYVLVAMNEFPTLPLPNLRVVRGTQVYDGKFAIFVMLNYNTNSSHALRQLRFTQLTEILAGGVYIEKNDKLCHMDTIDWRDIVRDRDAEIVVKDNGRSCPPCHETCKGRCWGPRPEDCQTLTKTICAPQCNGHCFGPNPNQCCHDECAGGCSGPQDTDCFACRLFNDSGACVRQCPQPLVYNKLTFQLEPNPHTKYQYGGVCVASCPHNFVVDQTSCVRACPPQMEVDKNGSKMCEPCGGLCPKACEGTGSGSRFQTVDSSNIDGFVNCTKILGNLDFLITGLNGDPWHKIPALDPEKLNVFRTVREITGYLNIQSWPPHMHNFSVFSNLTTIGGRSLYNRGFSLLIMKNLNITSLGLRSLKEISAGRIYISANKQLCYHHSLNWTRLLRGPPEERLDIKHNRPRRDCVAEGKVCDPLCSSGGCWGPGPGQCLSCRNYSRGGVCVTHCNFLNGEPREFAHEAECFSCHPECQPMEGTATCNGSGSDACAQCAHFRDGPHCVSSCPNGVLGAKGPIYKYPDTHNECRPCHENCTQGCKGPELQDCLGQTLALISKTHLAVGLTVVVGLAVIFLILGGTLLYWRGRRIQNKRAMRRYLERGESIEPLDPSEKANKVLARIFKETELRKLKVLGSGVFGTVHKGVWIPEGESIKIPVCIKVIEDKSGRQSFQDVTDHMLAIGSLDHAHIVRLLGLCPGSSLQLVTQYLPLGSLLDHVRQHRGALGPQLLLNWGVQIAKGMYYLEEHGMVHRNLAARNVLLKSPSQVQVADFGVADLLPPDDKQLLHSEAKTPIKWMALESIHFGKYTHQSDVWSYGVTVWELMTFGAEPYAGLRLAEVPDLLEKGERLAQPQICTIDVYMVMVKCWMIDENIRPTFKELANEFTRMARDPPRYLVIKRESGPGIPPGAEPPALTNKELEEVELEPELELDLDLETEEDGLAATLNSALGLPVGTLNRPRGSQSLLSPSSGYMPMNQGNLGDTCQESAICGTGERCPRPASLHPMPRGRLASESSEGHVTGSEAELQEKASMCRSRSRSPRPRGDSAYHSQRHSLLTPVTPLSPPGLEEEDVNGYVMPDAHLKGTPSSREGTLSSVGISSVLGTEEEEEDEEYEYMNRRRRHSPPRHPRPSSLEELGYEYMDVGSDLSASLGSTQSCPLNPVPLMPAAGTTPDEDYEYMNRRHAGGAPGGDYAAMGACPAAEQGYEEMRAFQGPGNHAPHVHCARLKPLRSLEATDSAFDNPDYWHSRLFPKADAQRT

[5] = target: mouse HER3 expressed on CHO-S cells (CHO-mHER3 cells) (mouse, UniProt Q61526 20-641); assay: flow cytometry on CHO-mHER3 cells
[6] = target: T1, His-tagged human HER3 protein (hHER3, …); assay: SPR (Biacore 8K), antibody captured on Protein A chip, His-tagged HER3 as analyte

Measured: binding result

Sequence of mouse HER3 expressed on CHO-S cells (CHO-mHER3 cells) (Q61526 20-641): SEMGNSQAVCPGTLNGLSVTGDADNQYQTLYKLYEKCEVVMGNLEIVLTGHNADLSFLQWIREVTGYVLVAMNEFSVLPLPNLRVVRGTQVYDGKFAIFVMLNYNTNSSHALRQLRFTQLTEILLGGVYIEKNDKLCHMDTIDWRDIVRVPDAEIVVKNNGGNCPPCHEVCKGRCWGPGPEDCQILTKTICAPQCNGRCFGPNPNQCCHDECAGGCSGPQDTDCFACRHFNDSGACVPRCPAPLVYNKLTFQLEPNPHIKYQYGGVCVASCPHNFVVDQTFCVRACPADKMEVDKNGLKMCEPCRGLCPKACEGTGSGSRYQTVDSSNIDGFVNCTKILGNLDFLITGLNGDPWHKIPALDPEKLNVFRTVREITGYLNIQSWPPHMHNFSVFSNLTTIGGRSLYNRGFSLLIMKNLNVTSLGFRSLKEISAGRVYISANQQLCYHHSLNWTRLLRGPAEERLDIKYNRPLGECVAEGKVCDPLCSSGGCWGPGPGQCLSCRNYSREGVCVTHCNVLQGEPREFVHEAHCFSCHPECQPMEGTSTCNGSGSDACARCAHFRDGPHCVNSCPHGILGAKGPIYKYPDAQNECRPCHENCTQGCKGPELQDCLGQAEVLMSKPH

B1: anti-HER3 antibody 1C5 (antibody, human IgG1, V domains shown)
VH: QVQLVESGGGVVQPGKSLRLSCAASGFTFSRSGMHWVRQAPGKGLEWVALISFDGSNKYYADSVKGRFTISRDNSKNTLNLQMNSLRAEDTAVYYCAKGGFGVVIYDAFDIWGHGTMVTVSS
VL: not shown
notes: common light chain
binds: [1] | [2] | [3] | [4]

B2: anti-HER3 antibody 1D6 (antibody, human IgG1, V domains shown)
VH: EVQLVQSGPGLVKPSETLSLTCTVSGGSISSNNYYWAWIRQPPGKGLEWIGSLYYTGRAYYKSSLKSRVTISVDTSNDQFSLRLTSVTAADTAIYYCARHDCGNTCLNWFDRWGQGTLVTVSS
VL: not shown
notes: common light chain
not listed: [2]
binds: all other assays above

B3: anti-HER3 antibody 3G6 (antibody, human IgG1, V domains shown)
VH: QVQLVQSGPVLVKPTETLTLTCTVSGFSLSNIRMGVSWIRQPPGKALEWLAHIFSNDDKSYSTSLKSRLTISKDTSKSQVVLTMTNVDPVDTATYYCTRMRYSGGPFDYWGQGTLVTVSS
VL: not shown
notes: common light chain
not listed: [6]
binds: all other assays above

B4: anti-HER3 antibody 1B2 (antibody, V domains shown)
VH: B3 VH with G26T, I32A, T63P, S78T, V87M, T98S, T114S
VL: not shown
notes: common light chain
not listed: [6]
binds: all other assays above

B5: anti-HER3 antibody 3E1 (antibody, human IgG1, V domains shown)
VH: B3 VH with Q1E, V12A, T63P, S67N, N86T, V87M, V90M, R101K
VL: not shown
notes: common light chain
not listed: [6]
binds: all other assays above
